The text below walks through data of patent US20140024555A1 (LOS ALAMOS NATIONAL SECURITY, published 2014).

Test [1] has as its target T1, YBGK of Escherichia coli with C-terminal GFP S11 tag (Escherichia coli, UniProt P75745 1-310).
T1 construct: Labelled by complementation with co-expressed GFP 1-10 detector; also called last subunit of YBGJ/YBGK (predicted allophanate hydrolase); not shown: flexible linker and C-terminal GFP S11 tag of the pTET S11 vector
T1 sequence: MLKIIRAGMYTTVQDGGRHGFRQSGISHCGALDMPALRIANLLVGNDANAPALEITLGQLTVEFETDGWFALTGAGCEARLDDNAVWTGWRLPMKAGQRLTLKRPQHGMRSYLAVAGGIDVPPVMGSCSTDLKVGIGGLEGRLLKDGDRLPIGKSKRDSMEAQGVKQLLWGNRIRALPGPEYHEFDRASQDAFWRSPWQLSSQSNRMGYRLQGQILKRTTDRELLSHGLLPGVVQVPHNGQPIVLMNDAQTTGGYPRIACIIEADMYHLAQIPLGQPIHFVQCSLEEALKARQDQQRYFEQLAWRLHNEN
Put plainly: colony filtration immobilized bead assay, capture plates with TNG buffer (FIG. 4B); complex 6.

Test [2] deals with T2, YheM subunit of the E. coli YheML construct, with N-terminal 6-His tag (Escherichia coli, UniProt P45531 1-119).
T2 construct: Negative control construct in which YheN is omitted; the first subunit of each construct carries the 6-His tag; also called TusC; first subunit of Yhe ML; not shown: N-terminal 6-His tag from the N-6His pTET S11 vector
T2 sequence: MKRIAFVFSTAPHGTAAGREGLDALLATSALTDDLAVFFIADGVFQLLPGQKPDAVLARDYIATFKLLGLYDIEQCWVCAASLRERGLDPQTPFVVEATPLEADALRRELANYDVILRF
Nature of the test: colony filtration immobilized bead assay: 6-His subunit captured on Talon resin in agarose, GFP S11 subunit read by complemented GFP fluorescence; YheML construct with YheN omitted.

B1: YBGJ of Escherichia coli with N-terminal 6-His tag (other)
chain: MQRARCYLIGETAVVLELEPPVTLASQKRIWRLAQRLVDMPNVVEAIPGMNNITVILRNPESLALDAIERLQRWWEESEALEPESRFIEIPVVYGGAGGPDLAVVAAHCGLSEKQVVELHSSVEYVVWFLGFQPGFPYLGSLPEQLHTPRRAEPRLLVPAGSVGIGGPQTGVYPLATPGGWQLIGHTSLSLFDPARDEPILLRPGDSVRFVPQKEGVC
notes: also called predicted allophanate hydrolase; not shown: N-terminal 6-His tag from the N-6His pTET S11 vector
Take B1: the binding result in test [1] is “binds”.

B2: YheL subunit of the E. coli YheNML / YheML constructs, with C-terminal GFP S11 tag (other)
chain: MLHTLHRSPWLTDFAALLRLLSEGDELLLLQDGVTAAVDGNRYLESLRNAPIKVYALNEDLIARGLTGQISNDIILIDYTDFVRLTVKHPSQMAW
notes: Fluorescently labelled in the cell by complementation with co-expressed GFP 1-10 detector; also called TusB; last subunit of Yhe NML and Yhe ML; not shown: flexible linker and C-terminal GFP S11 tag (beta-strand 11, residues 215-230) of the pTET S11 vector; the S11 variant an
Take B2: the binding result in test [2] is listed as “no binding”.
